Laboratory results: patent publication US7847064B2, “Methods and compositions for regulating gene expression in plant cells” (Donald Danforth Plant Science Center, priority 2004, dated 2010)

B1: RF2a: rice bZIP transcription factor, SEQ ID NO:4 (protein)
chain: MNREKSPIPGDGGDGLPPQATRRAGPPAAAAAAEYDISRMPDFPTRNPGHRRAHSEILSLPEDLDLCAAGGGDGPSLSDENDEELFSMFLDVEKLNSTCGASSEAEAESSSAAAHGARPKHQHSLSMDESMSIKAEELVGASPGTEGMSSAEAKKAVSAVKLAELALVDPKRAKRIWANRQSAARSKERKMRYIAELERKVQTLQTEATTLSAQLALLQRDTSGLTTENSELKLRLQTMEQQVHLQDALNDTLKSEVQRLKVATGQMANGGGMMMNFGGMPHQFGGNQQMFQNNQAMQSMLAAHQLQQLQLHPQAQQQQVLHPQHQQQQPLHPLQAQQLQQAARDLKMKSPMGGQSQWGDGKSGSSGN
modifications: This sequence was artificially derived and/or created by the inventors.
B2: RF2b: bZIP transcription factor isolated through interaction with RF2a, SEQ ID NO:5 (protein)
chain: MQEPKHTDPAAMRGAHHRRARSEVAFRLPDDLDLGGGGAGAFDEIGSEDDLFSTFMDIEKISSGPAAAGGSDRDRAAETSSPPRPKHRHSSSVDGSGFFAAARKDAAASLAEVMEAKKAMTPEQLSDLAAIDPKRAKRILANRQSAARSKERKARYITELERKVQTLQTEATTLSAQLTLFQRDTTGLSAENAELKIRLQAMEQQAQLRDALNDALKQELERLKLATGEMTNSNETYSMGLQHVPYNTPFFPLAQHNAARQNGGTQLPPQFQPPRPNVPNHMLSHPNGLQDIMQQDPLGRLQGLDISKGPLVVKSESSSISASESSSTF
modifications: This sequence was artificially derived and/or created by the inventors.
B3: AGE: SEQ ID NO: 6 (A) + SEQ ID NO: 103 (GE) (protein)
chain: MGHRRAHSEILSLPEDLDLCAAGGGDGPSLSDENDEELFSMFLDVEKLNSTCGASSEAEAESSSAAAKLLSSIEQACDICRLKKLKCSKEKPKCAKCLKNNWECRYSPKTKRSPLTRAHLTEVESRLERLEQLFLLIFPREDLDMILKMDSLQDIKALLTGLFVQDNVNKDAVTDRLASVETDMPLTLRQHRISATSSSEESSNKGQRQLTVSGGSRRISWPECVVPETQCAMKRKEKKAQKEKDKLPVSTTTVDDHMPPIMQCEPPPPEAARIHEVVPRFLSDKLLETNRQKNIPQLTANQQFLIARLIWYQDGYEQPSDEDLKRITQTWQQADDENEESDTPFRQITEMTILTVQLIVEFAKGLPGFAKISQPDQITLLKAFSSEVMMLRVARRYDAASDSVLFANNQAYTRDNYRKAGMAYVIEDLLHFCRCMYSMALDNIHYALLTAVVIFSDRPGLEQPQLVEEIQRYYLNTLRIYILNQLSGSARSSVIYGKILSILSELRTLGMQNSNMCISLKLKNRKLPPFLEEIWDVADMSHTQPPPILESPTNL
modifications: This sequence was artificially derived and/or created by the inventors.; A combination of the Gal4 protein and Ecdysone receptor
B4: A5A5GE: (2 × SEQ ID NO: 101 (A5)) + SEQ ID NO: 103 (GE) (protein, listed as Oryza sp.)
chain: EILSLPEDLDLCAAGGGDGPSLSDENDEEEILSLPEDLDLCAAGGGDGPSLSDENDEEKLLSSIEQACDICRLKKLKCSKEKPKCAKCLKNNWECRYSPKTKRSPLTRAHLTEVESRLERLEQLFLLIFPREDLDMILKMDSLQDIKALLTGLFVQDNVNKDAVTDRLASVETDMPLTLRQHRISATSSSEESSNKGQRQLTVSGGSRRISWPECVVPETQCAMKRKEKKAQKEKDKLPVSTTTVDDHMPPIMQCEPPPPEAARIHEVVPRFLSDKLLETNRQKNIPQLTANQQFLIARLIWYQDGYEQPSDEDLKRITQTWQQADDENEESDTPFRQITEMTILTVQLIVEFAKGLPGFAKISQPDQITLLKAFSSEVMMLRVARRYDAASDSVLFANNQAYTRDNYRKAGMAYVIEDLLHFCRCMYSMALDNIHYALLTAVVIFSDRPGLEQPQLVEEIQRYYLNTLRIYILNQLSGSARSSVIYGKILSILSELRTLGMQNSNMCISLKLKNRKLPPFLEEIWDVADMSHTQPPPILESPTNL
modifications: A combination of the Gal4 protein and Ecdysone receptor

How the values were obtained:
[1] = test system: transgenic rice and tobacco plants; conditions: Yin et al., 1997; Petruccelli et al., 2001; cited from earlier work
[2] = test system: Nicotiana tabacum cv. Xanthi NN; assay: Phenotype of transgenic tobacco plants overexpressing RF2a or RF2a mutants; format: in vivo; conditions: CaMV 35S promoter driven, T1 generation, greenhouse
From the text: (Yin et al., 1997; Petruccelli et al., 2001). […] Fifteen or more independent transgenic tobacco lines were developed with the constructs described below through Agrobacterium-mediated transformation.
Plasmids for Agrobacterium-mediated transformation—The fusion genes described above relating to the plant expression constructs comprising RF2a deletion mutants were released from pMON999-derived plasmids using NotI (blunted) and cloned into the binary vector pGA-E::GUS (Petruccelli et al., 2001) using the blunt HindIII site (downstream of a CaMV 35S promoter sequence). The final plasmids were named pGA-E::GUS/P-35S::ΔP, pGA-E::GUS/P-35S::ΔQ, pGA-E::GUS/P-35S::ΔPΔA and pGA-E::GUS/P-35S::ΔPΔQ. A plasmid encoding full-length RF2a, p35S::RF2a, was also constructed using the methods described herein.
Tobacco transformation—the plasmids described above were introduced into Agrobacterium tumefaciens strain LBA4404 and used for tobacco transformation. Leaf discs from Nicotiana tabacum cv. Xanthi NN were transformed with the various plasmids following the protocol of Horsch et al. (1988). At least 15 independent transgenic lines were produced with each gene construct. Transgenic plants were self-fertilized, and T1 seeds were collected. The T1 seeds were germinated on Murashige and Skoog medium (Murashige and Skoog, 1962) with kanamycin (100 mg/L) selection, and Kan^r seedlings were grown in a greenhouse for observation.
The phenotype caused by 35S::RF2a-ΔPΔA was similar to, but less severe than, the phenotype caused by 35S::RF2a-3Δ. […] (FIG. 19(C)).

[3] = test system: E fragment of the RTBV promoter; assay: Co-transfection of E::GUS with RF2a and/or RF2b constructs in BY-2 protoplasts; format: cell-based, tobacco
From the text: Nevertheless, the E fragment may be further stimulated by co-transfecting the BY-2 protoplasts with constructs that encode the RF2a and/or RF2b transcription factors. In this Example, the E fragment was activated in tobacco BY-2 protoplasts by co-transfection of E::GUS with CsVMV::RF2b, CaMV 35S::RF2a and CaMV 35S::RF2a/CsVMV::RF2b using methods well-known in the art.

[4] = test system: Box II, Box IIm1 and Box IIm2 elements; assay: Surface Plasmon Resonance binding (BIAcore 2000); conditions: for DNA binding behavior (association and dissociation): 1:1 binding with a mass transfer model
Protocol: To compare the binding affinities of RF2a and RF2b with the Box II element and its mutants, real time Surface Plasmon Resonance (“SPR”) measurements were conducted using a BIAcore 2000 instrument. The binding affinities of RF2a and RF2b to these DNA targets were measured on chips on which biotin labeled-Box II, -Box IIm1 and -Box IIm2 elements were immobilized.
The association and de-association constants were determined using BIAevaluation 3.1 software—using 1:1 binding with a mass transfer model. […] Furthermore, the DNA binding behavior of RF2a and RF2b are quite different from each other. […] The differences in the affinity of RF2a to the Box II element and its mutants, however, are not as dramatic as the differences of RF2b, while the relative order of affinities to the different target elements is the same for both proteins (FIG. 8).

E(Box IIm1) promoter = assay: BY-2 protoplast transient assay, reporter pE(Box IIm1)::GUS with RF2a/RF2b effectors; format: cell-based, tobacco; conditions: co-transfection, BY-2 protoplasts
From the text: (§1) To illustrate the biological relevance of the differences in the binding affinities described above, the pE::GUS, pE(Box IIm1)::GUS and pE(Box IIm2)::GUS constructs were used as reporters in BY-2 protoplast transient assays. In these assays, CaMV 35S::RF2a, CsVMV::RF2b and CaMV 35S::RF2a/CsVMV::RF2b were used as effectors. All results were normalized against the GFP internal control. The relative GUS activities of different sets of transfection assays are shown in FIG. 9 for the Box IIm1 element, and FIG. 10 for the Box IIm2 element.

E(Box IIm2) promoter = assay: BY-2 protoplast transient assay, reporter pE(Box IIm2)::GUS with RF2a/RF2b effectors; format: cell-based, tobacco; conditions: co-transfection, BY-2 protoplasts, normalized against GFP
From the text: as §1

5XG-35S:GUS = assay: MOF induced GUS activity in Arabidopsis plants with VGE, AGE or A5A5GE; format: in vivo, Arabidopsis thaliana; conditions: for activation of GUS expression, T2 generation plants: induced with MOF, plant lines #11, #11, #18; for activation of GUS expression, T1 generation plants: soil drench 1:10,000 dilution of MOF (61.3 μM) for 60 hours
Protocol: In this Example, Arabidopsis thaliana Col-0 plants were transformed with A. tumefaciens bacterium (strain GV3101) containing effector constructs comprising the CsVMV promoter operably linked to a nucleic acid sequence (SEQ ID NO:104) encoding the GE protein, plus (i) a nucleic acid sequence encoding the VP16 acidic activation domain of the herpes simplex virus, (ii) a sequence (SEQ ID NO:9) encoding the full RF2a acidic domain, or (iii) a sequence (2×SEQ ID NO:102) encoding a dimer of the A5 minimal acidic domain of RF2a (“A5A5”). The foregoing VP16 acidic domain-, RF2a acidic domain-, and A5A5 domain-encoding sequences were oriented to express such domains at the N-terminal of the GE protein. FIG. 28 refers to these constructs as VGE, AGE, and A5A5GE, respectively.
The foregoing effector constructs were prepared using standard DNA cloning and PCR procedures, and plasmids containing nucleic acid sequences encoding the VP16 acidic domain, the full length RF2a acidic domain (SEQ ID NO:6), the A5A5 domain (2×SEQ ID NO:101), and the GE domain (SEQ ID NO:103). Those of ordinary skill in the art will appreciate, however, that such effector sequences (and derivatives thereof) may also be constructed synthetically using standard procedures. The reporter construct described in Example 17 above, 5XG-35S:GUS, was used in this Example.
Next, plasmids containing the effector and reporter constructs described above were transferred by electroporation into A. tumefaciens strain GV3101. Agrobacterium isolates that contained the respective plasmids were used to transform A. thaliana Col-0 using a standard floral dip method (Clough and Bent, 1998). Seeds from the T1 generation were collected and germinated in Murashige and Skoog medium (Murashige and Skoog, 1962) containing a selective component (hygromycin B (30 μg/mL).
The seedlings that survived the selection were grown in soil in a growth chamber and allowed to self-fertilize. Next, T2 generation seeds were collected and germinated in Murashige and Skoog medium, which contained hygromycin B (30 μg/mL). The seedlings that survived the selection in a 3:1 segregation pattern were grown in soil in a growth chamber (under 12 hours of light/12 hours of dark per day, at 22° C., 50% humidity).
Analysis of T1 Generation Plants—In this Example, 22 T1 plants were analyzed for methoxyfenozide (MOF) induced gene expression. […] The supernatants were analyzed for GUS enzymatic activity as described in Example 16 above.
Analysis of T2 Generation Plants—A total of 16 different plants from a T2 generation plant line (having a segregation of the reporter/effector constructs of 3:1), wherein each plant contained a VGE, AGE, or A5A5GE effector construct, were induced with MOF and analyzed for GUS activity (as described above). […]

Row | Molecule | appearance and reproduction of overexpressing plants [1] | phenotype of transgenic tobacco plants [2] | activation of the E fragment by over-expression [3] | DNA binding behavior (association and dissociation) [4] | binding affinities to the Box II, Box IIm1 and Box IIm2 elements ([4]; compared to RF2b, biotin labeled elements immobilized on chips) | activity of the E(Box IIm1) promoter compared with the E wild type promoter (E(Box IIm1) promoter) | increase of promoter activity of E(Box IIm1) (E(Box IIm1) promoter; normalized against GFP) | increase of promoter activity of E(Box IIm2) (E(Box IIm2) promoter) | activation of GUS expression, T2 generation plants (5XG-35S:GUS) | activation of GUS expression, T1 generation plants (5XG-35S:GUS)
1 | B1 | normal in appearance and reproduction | did not exhibit abnormal phenotypes | activated above a strong background expression | bind rapidly to the DNA target and slowly dissociates from the target | relatively higher binding affinities | – | – | – | – | –
2 | B2 | – | – | activated above a strong background expression | binds slowly to the DNA target and releases from the target relatively quickly | – | as high as the expression of the E wild type promoter in BY-2 protoplasts | about 7 fold | about 5.8 fold | – | –
3 | B3 | – | – | – | – | – | – | – | – | activated GUS expression (in the T2 generation plants) in the presence of the MOF inducer as strong as VP16 | activated GUS expression in the presence of the MOF inducer as strong as VP16
4 | B4 | – | – | – | – | – | – | – | – | activated GUS expression (in the T2 generation plants) in the presence of the MOF inducer as strong as VP16 | activated GUS expression in the presence of the MOF inducer as strong as VP16
